One block for each binder: values may come before it.
What was measured:
[1] = target: KEAP1 (wild-type full-length), His-tagged (human) (UniProt Q14145); assay: AlphaScreen; 614.4 nM FLAG-NRF2, 150 nM His-KEAP1; Rep 2; control for I86V
[2] = target: KEAP1 (wild-type full-length), His-tagged (human) (UniProt Q14145); assay: AlphaScreen; 38.4 nM FLAG-NRF2, 150 nM His-KEAP1 (same value as in Table 26)
[3] = target: KEAP1 (wild-type full-length), His-tagged (human) (UniProt Q14145); assay: AlphaScreen; 4.8 nM FLAG-NRF2, 150 nM His-KEAP1; Rep 1; control for I28V
[4] = target: KEAP1 (wild-type full-length), His-tagged (human) (UniProt Q14145); assay: AlphaScreen; 4.8 nM FLAG-NRF2, 150 nM His-KEAP1; signal against NRF2 only; control for I86V
[5] = target: KEAP1 (wild-type full-length), His-tagged (human) (UniProt Q14145); assay: AlphaScreen; 307.2 nM FLAG-NRF2, 150 nM His-KEAP1; Rep 1; control for I28V
[6] = target: KEAP1 (wild-type full-length), His-tagged (human) (UniProt Q14145); assay: AlphaScreen; FLAG-NRF2 wt isoform 1 2.4 nM, His-KEAP1 150 nM; Rep 2; positive control for Q75R
[7] = target: KEAP1 (wild-type full-length), His-tagged (human) (UniProt Q14145); assay: AlphaScreen; 19.2 nM FLAG-NRF2, 150 nM His-KEAP1; Rep 2; control for I28V
[8] = target: KEAP1 (wild-type full-length), His-tagged (human) (UniProt Q14145); assay: AlphaScreen; 307.2 nM FLAG-NRF2, 150 nM His-KEAP1; Rep 2; control for I28V
[9] = target: KEAP1 (wild-type full-length), His-tagged (human) (UniProt Q14145); assay: AlphaScreen; 76.8 nM FLAG-NRF2, 150 nM His-KEAP1; signal against NRF2 only; control for I28V
[10] = target: KEAP1 (wild-type full-length), His-tagged (human) (UniProt Q14145); assay: AlphaScreen; FLAG-NRF2 Q75R 9.6 nM, His-KEAP1 150 nM; Repeat 1
[11] = target: KEAP1 (wild-type full-length), His-tagged (human) (UniProt Q14145); assay: AlphaScreen; NRF2 Q75R 4.8 nM, KEAP1 150 nM; signal against NRF2-only control
[12] = target: KEAP1 (wild-type full-length), His-tagged (human) (UniProt Q14145); assay: AlphaScreen; FLAG-NRF2 Q75R 76.8 nM, His-KEAP1 150 nM; Rep 2
[13] = target: KEAP1 (wild-type full-length), His-tagged (human) (UniProt Q14145); assay: AlphaScreen; FLAG-NRF2 I86V 1228.8 nM, His-KEAP1 150 nM; Rep 2
[14] = target: KEAP1 (wild-type full-length), His-tagged (human) (UniProt Q14145); assay: AlphaScreen; FLAG-NRF2 I86V 38.4 nM, His-KEAP1 150 nM; Rep 1
[15] = target: KEAP1 (wild-type full-length), His-tagged (human) (UniProt Q14145); assay: AlphaScreen; FLAG-NRF2 I86V 2.4 nM, His-KEAP1 150 nM; Rep 2
[16] = target: KEAP1 (wild-type full-length), His-tagged (human) (UniProt Q14145); assay: AlphaScreen; FLAG-NRF2 I86V 38.4 nM, His-KEAP1 150 nM; Rep 2
[17] = target: KEAP1 (wild-type full-length), His-tagged (human) (UniProt Q14145); assay: AlphaScreen; 307.2 nM FLAG-NRF2, 150 nM His-KEAP1; Rep 2
[18] = target: KEAP1 (wild-type full-length), His-tagged (human) (UniProt Q14145); assay: AlphaScreen; 9.6 nM FLAG-NRF2, 150 nM His-KEAP1; against wild-type NRF2 isoform 1 = 100%
[19] = target: KEAP1 (wild-type full-length), His-tagged (human) (UniProt Q14145); assay: AlphaScreen; 9.6 nM FLAG-NRF2, 150 nM His-KEAP1; Repeat 2 (same value as in Table 27)
[20] = target: KEAP1 (wild-type full-length), His-tagged (human) (UniProt Q14145); assay: AlphaScreen; mean over 9.6, 19.2 and 38.4 nM NRF2; 150 nM His-KEAP1; against wild-type NRF2 isoform 1 = 100%
[21] = target: KEAP1 (wild-type full-length), His-tagged (human) (UniProt Q14145); assay: AlphaScreen; 76.8 nM FLAG-NRF2, 150 nM His-KEAP1; signal against NRF2 only
[22] = target: KEAP1 (wild-type full-length), His-tagged (human) (UniProt Q14145); assay: AlphaScreen; 38.4 nM FLAG-NRF2, 150 nM His-KEAP1; Rep 1
[23] = target: KEAP1 (wild-type full-length), His-tagged (human) (UniProt Q14145); assay: AlphaScreen; standard deviation of three conditions; against wild-type NRF2 isoform 1
[24] = target: KEAP1 (wild-type full-length), His-tagged (human) (UniProt Q14145); assay: AlphaScreen; 1228.8 nM FLAG-NRF2, 150 nM His-KEAP1; Rep 2
[25] = target: KEAP1 (wild-type full-length), His-tagged (human) (UniProt Q14145); assay: AlphaScreen; 4.8 nM FLAG-NRF2, 150 nM His-KEAP1; Rep 1
[26] = target: KEAP1 (wild-type full-length), His-tagged (human) (UniProt Q14145); assay: AlphaScreen; 38.4 nM FLAG-NRF2, 150 nM His-KEAP1; Repeat 2 (same value as in Table 27)
[27] = target: KEAP1 (wild-type full-length), His-tagged (human) (UniProt Q14145); assay: AlphaScreen; 9.6 nM FLAG-NRF2, 150 nM His-KEAP1; Rep 1

Chain of KEAP1 (wild-type full-length), His-tagged (human) (Q14145 2-624 limits assumed): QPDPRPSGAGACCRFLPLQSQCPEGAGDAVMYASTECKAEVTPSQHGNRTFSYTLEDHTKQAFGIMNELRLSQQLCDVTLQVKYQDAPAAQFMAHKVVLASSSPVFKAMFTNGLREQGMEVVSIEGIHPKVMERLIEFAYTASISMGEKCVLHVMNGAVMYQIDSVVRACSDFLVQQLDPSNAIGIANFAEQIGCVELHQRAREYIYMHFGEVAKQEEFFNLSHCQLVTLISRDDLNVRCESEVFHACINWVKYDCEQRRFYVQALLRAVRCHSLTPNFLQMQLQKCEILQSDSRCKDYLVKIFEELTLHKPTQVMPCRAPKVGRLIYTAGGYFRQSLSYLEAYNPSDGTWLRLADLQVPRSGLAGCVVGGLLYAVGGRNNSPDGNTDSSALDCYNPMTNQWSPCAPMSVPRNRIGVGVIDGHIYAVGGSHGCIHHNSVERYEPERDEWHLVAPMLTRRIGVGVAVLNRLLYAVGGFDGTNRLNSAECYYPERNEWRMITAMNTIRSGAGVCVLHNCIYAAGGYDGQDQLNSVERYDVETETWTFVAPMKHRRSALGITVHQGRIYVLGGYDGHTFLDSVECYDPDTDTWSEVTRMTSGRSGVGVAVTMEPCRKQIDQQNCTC

A-counts [1]: 2520 A-counts | S/N [2]: 3.6 | A-counts [3]: 1120 A-counts | S/N [4]: 2.8 | A-counts [5]: 1850 A-counts | A-counts (NRF2 plus KEAP1) [6]: 429 A-counts | A-counts [7]: 2000 A-counts | A-counts [8]: 1780 A-counts | S/N [9]: 2.7
B1: NRF2 isoform 1 (wild-type full-length), FLAG-tagged (protein)
chain: MMDLELPPPGLPSQQDMDLIDILWRQDIDLGVSREVFDFSQRRKEYELEKQKKLEKERQEQLQKEQEKAFFAQLQLDEETGEFLPIQPAQHIQSETSGSANYSQVAHIPKSDALYFDDCMQLLAQTFPFVDDNEVSSATFQSLVPDIPGHIESPVFIATNQAQSPETSVAQVAPVDLDGMQQDIEQVWEELLSIPELQCLNIENDKLVETTMVPSPEAKLTEVDNYHFYSSIPSMEKEVGNCSPHFLNAFEDSFSSILSTEDPNQLTVNSLNSDATVNTDFGDEFYSAFIAEPSISNSMPSPATLSHSLSELLNGPIDVSDLSLCKAFNQNHPESTAEFNDSDSGISLNTSPSVASPEHSVESSSYGDTLLGLSDSEVEELDSAPGSVKQNGPKTPVHSSGDMVQPLSPSQGQSTHVHDAQCENTPEKELPVSPGHRKTPFTKDKHSSRLEAHLTRDELRAKALHIPFPVEKIINLPVVDFNEMMSKEQFNEAQLALIRDIRRRGKNKVAAQNCRKRKLENIVELEQDLDHLKDEKEKLLKEKGENDKSLHLLKKQLSTLYLEVFSMLRDEDGKPYSPSEYSLQQTRDGNVFLVPKSKKPDVKKN

A-counts (NRF2 plus KEAP1) [10]: 1180 A-counts | S/N [11]: 2.3 | A-counts (NRF2 plus KEAP1) [12]: 1150 A-counts
B2: NRF2 isoform 1 (Q75R full-length), FLAG-tagged (protein)
chain: MMDLELPPPGLPSQQDMDLIDILWRQDIDLGVSREVFDFSQRRKEYELEKQKKLEKERQEQLQKEQEKAFFAQLRLDEETGEFLPIQPAQHIQSETSGSANYSQVAHIPKSDALYFDDCMQLLAQTFPFVDDNEVSSATFQSLVPDIPGHIESPVFIATNQAQSPETSVAQVAPVDLDGMQQDIEQVWEELLSIPELQCLNIENDKLVETTMVPSPEAKLTEVDNYHFYSSIPSMEKEVGNCSPHFLNAFEDSFSSILSTEDPNQLTVNSLNSDATVNTDFGDEFYSAFIAEPSISNSMPSPATLSHSLSELLNGPIDVSDLSLCKAFNQNHPESTAEFNDSDSGISLNTSPSVASPEHSVESSSYGDTLLGLSDSEVEELDSAPGSVKQNGPKTPVHSSGDMVQPLSPSQGQSTHVHDAQCENTPEKELPVSPGHRKTPFTKDKHSSRLEAHLTRDELRAKALHIPFPVEKIINLPVVDFNEMMSKEQFNEAQLALIRDIRRRGKNKVAAQNCRKRKLENIVELEQDLDHLKDEKEKLLKEKGENDKSLHLLKKQLSTLYLEVFSMLRDEDGKPYSPSEYSLQQTRDGNVFLVPKSKKPDVKKN

A-counts (NRF2 plus KEAP1) [13]: 1580 A-counts | A-counts (NRF2 plus KEAP1) [14]: 3010 A-counts | A-counts (NRF2 plus KEAP1) [15]: 1610 A-counts | A-counts (NRF2 plus KEAP1) [16]: 2920 A-counts
B3: NRF2 isoform 1 (I86V full-length), FLAG-tagged (protein)
chain: MMDLELPPPGLPSQQDMDLIDILWRQDIDLGVSREVFDFSQRRKEYELEKQKKLEKERQEQLQKEQEKAFFAQLQLDEETGEFLPVQPAQHIQSETSGSANYSQVAHIPKSDALYFDDCMQLLAQTFPFVDDNEVSSATFQSLVPDIPGHIESPVFIATNQAQSPETSVAQVAPVDLDGMQQDIEQVWEELLSIPELQCLNIENDKLVETTMVPSPEAKLTEVDNYHFYSSIPSMEKEVGNCSPHFLNAFEDSFSSILSTEDPNQLTVNSLNSDATVNTDFGDEFYSAFIAEPSISNSMPSPATLSHSLSELLNGPIDVSDLSLCKAFNQNHPESTAEFNDSDSGISLNTSPSVASPEHSVESSSYGDTLLGLSDSEVEELDSAPGSVKQNGPKTPVHSSGDMVQPLSPSQGQSTHVHDAQCENTPEKELPVSPGHRKTPFTKDKHSSRLEAHLTRDELRAKALHIPFPVEKIINLPVVDFNEMMSKEQFNEAQLALIRDIRRRGKNKVAAQNCRKRKLENIVELEQDLDHLKDEKEKLLKEKGENDKSLHLLKKQLSTLYLEVFSMLRDEDGKPYSPSEYSLQQTRDGNVFLVPKSKKPDVKKN

A-counts [17]: 1260 A-counts | Binding Percentage (%) [18]: 77.6% | A-counts [19]: 1560 A-counts | Average Binding [20]: 69.8% | S/N [21]: 2.2 | A-counts [22]: 1690 A-counts | Reported Value (standard deviation of reduction in binding) [23]: 7.2% | A-counts [24]: 1030 A-counts | A-counts [25]: 1120 A-counts | A-counts [26]: 1680 A-counts | A-counts [27]: 1570 A-counts
B4: NRF2 isoform 1 (I28V full-length), FLAG-tagged (protein)
chain: MMDLELPPPGLPSQQDMDLIDILWRQDVDLGVSREVFDFSQRRKEYELEKQKKLEKERQEQLQKEQEKAFFAQLQLDEETGEFLPIQPAQHIQSETSGSANYSQVAHIPKSDALYFDDCMQLLAQTFPFVDDNEVSSATFQSLVPDIPGHIESPVFIATNQAQSPETSVAQVAPVDLDGMQQDIEQVWEELLSIPELQCLNIENDKLVETTMVPSPEAKLTEVDNYHFYSSIPSMEKEVGNCSPHFLNAFEDSFSSILSTEDPNQLTVNSLNSDATVNTDFGDEFYSAFIAEPSISNSMPSPATLSHSLSELLNGPIDVSDLSLCKAFNQNHPESTAEFNDSDSGISLNTSPSVASPEHSVESSSYGDTLLGLSDSEVEELDSAPGSVKQNGPKTPVHSSGDMVQPLSPSQGQSTHVHDAQCENTPEKELPVSPGHRKTPFTKDKHSSRLEAHLTRDELRAKALHIPFPVEKIINLPVVDFNEMMSKEQFNEAQLALIRDIRRRGKNKVAAQNCRKRKLENIVELEQDLDHLKDEKEKLLKEKGENDKSLHLLKKQLSTLYLEVFSMLRDEDGKPYSPSEYSLQQTRDGNVFLVPKSKKPDVKKN

Source: patent US20250352667A1
